# Reference: article PMC7088246
# Molecular target: recombinant glycosylated HIV-1 IIIB gp120 (baculovirus) (HIV-1 IIIB) (UniProt P04578)
# Experiment: SPR
Substance,Ka [M⁻¹],Kd [pM],kon [M⁻¹ s⁻¹],koff [s⁻¹]
His-tagged recombinant KAA-1 (natural protein),1.48e+09,677,871000,
recombinant KAA-1 (His tag removed by thrombin) (natural protein),1.61e+09,622,,0.000529
